# Assay results taken from patent US11466286B2, “Methods and compositions for conferring and/or enhancing herbicide tolerance using protoporphyrinogen oxidase or variant thereof” (FarmHannong Co., Ltd., priority 2016, dated 2022).
# Positions count from the first letter of the chain named. Numbers in names are those of the source.
# B1: CyPPO10 WT: PPO protein derived from Thermosynechococcus elongatus BP-1, amino acid sequence SEQ ID NO: 2 (protein)
# chain: MIEVDVAIVGGGLSGLSVAWRLQRSAPHYSGVLLEASDRLGGNITTQAAEGFVWELGPNSFAPTPALLQLIAEVGLHSELIRGDRHLPRYIYWRGELYPLEPTRPLALATSNLLSPWGKVRAALGALGFVPPYLGSGDESVDSFFRRHLGQEVAERLVAPFVSGVYAGDPQQLSAAAAFRRIAQLEKLGGSLIAGALRLRRQQPPQPKPPAQVQMRPGELGSFREGLAALPRAIAQQLKAPLHLQTPVEAITPEPKGGYLLRSGEQTWHARSVVLATPAYQTAELVAPFQPAIARALATIPYPTVACVVLAYPAGLGRSVRPGFGVLVPRGQGIRTLGTIWSSCLFPQRTPAGWQVFTSFIGGATDPDLASLREEAIVEQVQQDLTRLLDLPAAKARLLGMKVWRRAIPQYIVGYPQQWQQVTHALTQTPGLFLCSNYAEGVALGDRVEHGNRTAAAVAAYLAGGQS
# modifications: Synthetic CyPPO10
# B2: CyPPO13 WT: PPO derived from Synechococcus sp. JA-3-3Ab strain, amino acid sequence SEQ ID NO: 4 (protein)
# chain: MNPATPEPLNAEVVVIGAGISGLTLAWRLQQGLSARGGSPQAVLLAEASSRVGGCISTQSKDGYRWEEGPNSFTPTPALLNLIAEVGLTDQLVLADAKLPRYIYWEGALLPVPLSPAAALGSRLLSVGGKLRALQGLLGFVPPPPGHEETVRQFFRRQLGSEVAERLVEPFTSGVYAGDPDQLSAVAAFPRVAGLEERYGSLFAGALQALRQRPQPSPAAIQPPPKRGQLGNLRQGLQQLPEALAQKLGDSLRLGWRALQLKRAGELYWVGFETPEGSRWVAARQVVLALPAYEAAALLQELNPPASQLLAEILYPPVAVVALAYPQEALPQPLRGFGHLIPRSQGLRTLGTIWASCLFPERAPQGYHSFLSFLGGATDAALARRRGIPPIPALSPEERAQIAHAELSQVLLTRRAEPVYLGERLWPRAIPQYTLGHRQRIAQVQAHLASQTPGIWVCANYLDGVALGDCVRRAEALAQQLLSQV
# modifications: Synthetic CyPPO13
# B3: CyPPO13 A177L + F373I: CyPPO13 (SEQ ID NO: 4) PPO variant (protein)
# chain: B2 chain with A177L, F373I
# modifications: Synthetic CyPPO13
# B4: CyPPO13 F373C: CyPPO13 (SEQ ID NO: 4) PPO variant (protein)
# chain: B2 chain with F373C
# modifications: Synthetic CyPPO13
# B5: CyPPO13 F373M: CyPPO13 (SEQ ID NO: 4) PPO variant (protein)
# chain: B2 chain with F373M
# modifications: Synthetic CyPPO13
# B6: CyPPO10 A167C + F360I: CyPPO10 (SEQ ID NO: 2) PPO variant (protein)
# chain: B1 chain with A167C, F360I
# modifications: Synthetic CyPPO10
# B7: CyPPO10 A167L + F360M: CyPPO10 (SEQ ID NO: 2) PPO variant (protein)
# chain: B1 chain with A167L, F360M
# modifications: Synthetic CyPPO10
# B8: AtPPO1 WT: wild type Arabidopsis thaliana PPO1, PPO susceptible (SEQ ID NO: 5) (protein, listed as Arabidopsis thaliana)
# chain: MELSLLRPTTQSLLPSFSKPNLRLNVYKPLRLRCSVAGGPTVGSSKIEGGGGTTITTDCVIVGGGISGLCIAQALATKHPDAAPNLIVTEAKDRVGGNIITREENGFLWEEGPNSFQPSDPMLTMVVDSGLKDDLVLGDPTAPRFVLWNGKLRPVPSKLTDLPFFDLMSIGGKIRAGFGALGIRPSPPGREESVEEFVRRNLGDEVFERLIEPFCSGVYAGDPSKLSMKAAFGKVWKLEQNGGSIIGGTFKAIQERKNAPKAERDPRLPKPQGQTVGSFRKGLRMLPEAISARLGSKVKLSWKLSGITKLESGGYNLTYETPDGLVSVQSKSVVMTVPSHVASGLLRPLSESAANALSKLYYPPVAAVSISYPKEAIRTECLIDGELKGFGQLHPRTQGVETLGTIYSSSLFPNRAPPGRILLLNYIGGSTNTGILSKSEGELVEAVDRDLRKMLIKPNSTDPLKLGVRVWPQAIPQFLVGHFDILDTAKSSLTSSGYEGLFLGGNYVAGVALGRCVEGAYETAIEVNNFMSRYAYK
# modifications: PEPTIDE (1)..(537) Wild type AtPPO1
# B9: AtPPO1 SLYM: mutated A. thaliana PPO1 with amino acid substitutions Y426M and S305L, PPO-inhibiting herbicide tolerant control (protein)
# chain: B8 chain with S305L, Y426M
# modifications: Synthetic Mutant type AtPPO1
# System: A. thaliana
# Test: Seed germination of A. thaliana transformants on ½ MS media containing herbicides
# Format: in vivo, Arabidopsis thaliana
# Conditions: T3 lines; 25 μM glufosinate, 25 μM glufosinate+70 nM tiafenacil, or 25 μM glufosinate+30 nM tiafenacil+40 nM saflufenacil; 7 days after sowing
# Excerpt: T3 generation seeds of each transformant were sown in ½ MS media containing herbicides. Col-0 ecotype (wild type Arabidopsis) seeds were used as a control. The kinds of herbicides and concentration are as follows:
# In FIGS. 31a to 31c, 10-3 refers to CyPPO10 wild type, 10FM-4-7 to the CyPPO10 F360M transgenic line, 10FL-1-9 to the CyPPO10 F360L transgenic line, 10FC-3-5 to the CyPPO10 F360C transgenic line, 10AC-5-4 to the CyPPO10 A167C transgenic line, 13-1 to CyPPO13 wild type, 13FM-3-1 to the CyPPO13 F373M transgenic line, 13FC-1-1 to the CyPPO13 F373C transgenic line, 13FI-2-1 to the CyPPO13 F373I transgenic line, 13AC-1-3 to the CyPPO13 A177C transgenic line, CyPPO13_ALFL to the CyPPO13 A177L+F373L transgenic line, and CyPPO13_ALFI to the CyPPO13 A177L+F373I transgenic line, respectively.
row,Molecule,Seed germination in media containing herbicides
1,B1,germinated
2,B2,germinated
3,B3,germinated
4,B4,germinated
5,B5,germinated

# System: A. thaliana
# Test: Herbicide spray on A. thaliana transformants, injury level judged at the 7th day
# Format: in vivo, Arabidopsis thaliana
# Conditions: A. thaliana transformants T2, tiafenacil 25 μM spray
row,Molecule,Average injury index
1,B6,2 (Over 20% and less than 30% of the plant was scorched)
2,B7,2 (Over 20% and less than 30% of the plant was scorched)

# System: CyPPO10
# Test: PPO enzyme activity and IC50 by herbicides, CyPPO10 wild type and variants (MBP-PPO fusion)
# Format: biochemical, Thermosynechococcus elongatus BP-1
# Conditions: PPO enzyme activity of CyPPO10 protein, wild type = 100
# Outline: (§1)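 Activity was read as protoporphyrin IX fluorescence (405/633 nm), calibrated with a protoporphyrin IX standard curve, after 30 min at room temperature with 50 μM substrate under mineral oil. The buffer was 50 mM Tris-Cl pH 8.0 with glucose oxidase/catalase and a 30 min preincubation. Enzymes were purified MBP-PPO fusions of CyPPO10 or CyPPO13, wild type and variants, expressed in E. coli.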
row,Molecule,Activity (%)
1,B1,100
2,B6,48
3,B7,80

# System: CyPPO13
# Test: PPO enzyme activity and IC50 by herbicides, CyPPO13 wild type and variants (MBP-PPO fusion)
# Format: biochemical, Synechococcus sp. JA-3-3Ab
# Conditions: PPO enzyme activity of CyPPO13 protein, wild type = 100
# Outline: as §1
row,Molecule,Activity (%)
1,B2,100
2,B3,66
3,B4,86
4,B5,98

# System: PPO-deficient BT3 E. coli (ΔPPO)
# Test: Tiafenacil tolerance of BT3 E. coli transformed with CyPPO10, CyPPO13 or AtPPO1 genes (pACBB vector)
# Format: cell-based
# Conditions: tiafenacil 0 μM; PPO function complementation
# Description: After transforming PPO-deficient BT3 E. coli (ΔPPO) with CyPPO10 or CyPPO13, the transformed BT3 (ΔPPO) was cultured on LB agar plates containing PPO-inhibiting herbicide to examine the growth level of the transformed BT3 (ΔPPO). BT3 (ΔPPO) strain was obtained from Hokkaido University (Japan). The BT3 (ΔPPO) strain is deficient in hemG-type PPO and has kanamycin tolerance (refer to “Watanabe et al., Dual targeting of spinach protoporphyrinogen oxidase II to mitochondria and chloroplasts by alternative use of two in-frame […], JBC 2001 276(23):20474-20481; Che et al., Molecular Characterization and Subcellular Localization of Protoporphyrinogen Oxidase in Spinach Chloroplasts, Plant Physiol. 2000 September; 124(1):59-70”).
# The cloned plasmid was added to 100 μl of BT3 competent cell (Hokkaido University; Japan) respectively, thereby transforming by a heat shock method. The transformed E. coli with each PPO gene was cultured in LB (Luria-Bertani) agar media comprising Chloramphenicol (Duchefa).
# For seed culture of E. coli transformed with respective genes, each single colony of E. coli transformant as provided above was cultured in 3 ml of LB broth containing chloramphenicol overnight (220 rpm, 37° C.), and 50 to 100 μl were subcultured in a new 3 ml of LB broth, and they were cultured until absorbance (OD600) became 0.5 to 1, and they were diluted with LB broth to absorbance (OD600) of 0.5. The diluted solution was serially diluted again 5 times by a factor of one tenth with LB broth. […] The LB Agar media were incubated at 37° C., under light condition, and level of inhibiting growth was observed after 16 to 20 hours of incubation.
# Plant physiol. 2003 133:736-747).
row,Molecule,Growth of BT3 transformant on medium containing no herbicide
1,B1,recovered
2,B8,recovered
3,B9,recovered
4,B2,recovered

# System: A. thaliana T3 lines with CyPPO10 wild type or mutants (F360M, F360I, F360L, F360C, A167C), CyPPO13 wild type or mutants (F373M, F373C, F373I, A177C …)
# Test: Seed germination of A. thaliana transformants on herbicide media
# Format: in vivo, Arabidopsis thaliana
# Conditions: 25 μM glufosinate, 7 days after sowing
row,Molecule,seed germination
1,CP(=O)(O)CCC(N)C(=O)O (stereo not shown) [glufosinate],germinated
